# PMC6021247
# Assays:
# [1] = target: rabbit APOBEC3A fused to Cherry (rA3A-Cherry) (rabbit); test: FRET or BRET; flow cytometry-based FRET (FRET-FACS); HEK-293T cells 48 hours after co-transfection of a Cherry-fusion and a GFP-fusion plasmid; percentage of FRET+ cells gated on Cherry+ and GFP+ cells
# [2] = target: rabbit TRIB3 pseudokinase fused to GFP (rTRIB3-GFP) (rabbit); test: as above
substance,measurement,setting,value
rabbit APOBEC3A fused to Cherry (rA3A-Cherry) (enzyme),percentage of fluorescent cells in the FRET channel,[1],19%
same,percentage of fluorescent cells in the FRET channel,[2],11%
